# Measured values from publication PMC12520357 (2025).
# T1: 14-3-3 proteins, P29311
# T1 chain: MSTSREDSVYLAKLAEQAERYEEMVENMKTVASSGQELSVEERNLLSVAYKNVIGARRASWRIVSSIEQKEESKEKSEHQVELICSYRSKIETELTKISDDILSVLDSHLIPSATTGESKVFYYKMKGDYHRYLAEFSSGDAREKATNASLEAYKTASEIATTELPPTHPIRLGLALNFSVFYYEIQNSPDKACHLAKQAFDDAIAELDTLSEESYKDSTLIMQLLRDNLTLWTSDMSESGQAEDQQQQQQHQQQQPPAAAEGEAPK
# Target: T1, 14-3-3 proteins, P29311
# Experiment: co-immunoprecipitation (anti-FLAG IP, immunoblot quantification)
# Settings: chain shown with the change; n = 3; reg1Δ Snf1-GFP Glc7-GFP cells; parent: est. 1.0; read off a plot
row,Binder,ratio to parent
1,"Reg1-FLAG (wild type), Q00816 P278Q (protein) MSTNLANYFAGKKDIENEHVNRNASHESNSKSDVKISGNDNDNDEDMGPSVSMAVQAKNDDDFHKSTFNLKRTRSMGLLDEYIDPTKKLLGRSDDLYDNDNEYYDNSSNNSSSNSSDDDYDDGYQEHSTSVSPPPADNDSYLIPQDDNDVVVEPERHVDYLSHEWKESEISNSWKYIILKKKKRDVDLVNAARLENASWRTWAKARNNLKTVSPEVVNWSKDSDVTWLYGPIVRDSEGNAQSEEEHDLERGYGSDDENSKRISMPTKNSKSIAAAPKQILKKRTVTEIIEDNALWKLNEARKHMTEMKHASVIMDPNGNKNVHDDFDALAAQVNAQYYHYPKESNSSVSLKSQHSDKKDNSTIPNPVGENSNGGGDKGEEDLHLKSALHVQNNRSTAQSNKSILENSTNDRKANLDQNLNSPDNNRFPSSTSSSNRDNENNSMGLSSILTSNPSEKSNKPTKNRHIHFNDRVEQCMALRYPASQSEDDESDDENKQYVDVNNNANVTTINNNRTPLLAIQHKSIPINSATEHLNKNTSDDDTSSQSSSSSHSDDEEHGGLYINARFSRRSDSGVHSPITDNSSVASSTTSRAHVRPIIKLLPDTTLNYGSDEESDNGEFNGYGNAVSHNVNTSRGYDYIYDYNSVYTGDTSSFLPVDSCDIVDVPEGMDLQTAIADDNASNYEFNNAVESKEKHVPQLHKASANNTTRQHGSHMLLYDDDNYSSSSDSEQQFIEDSQYNSSDDEEEEDDDDQEVDDNHDEGLSLRRTLSLGKSGSTNSLYDLAQPSLSSATPQQKNPTNFTGGKTDVDKDAQLAVRPYPLKRNSSSGNFIFNSDSEEESSSEEEQRPLPANSQLVNRSVLKGSVTPANISSQKKKALPKQPKASDSSQSFRIVNNTPSPAEVGASDVAIEGYFSPRNESIKSVVSGGNMMDHQDHSEMDTLAKGFENCHINNASKLKDKKVDSVQTTRKEASLTDSSNESLHKVVQNARGMASKYLHSWKKSDVKPQENGNDSS",1.2
2,"Reg1-FLAG (wild type), Q00816 P231S (protein) MSTNLANYFAGKKDIENEHVNRNASHESNSKSDVKISGNDNDNDEDMGPSVSMAVQAKNDDDFHKSTFNLKRTRSMGLLDEYIDPTKKLLGRSDDLYDNDNEYYDNSSNNSSSNSSDDDYDDGYQEHSTSVSPPPADNDSYLIPQDDNDVVVEPERHVDYLSHEWKESEISNSWKYIILKKKKRDVDLVNAARLENASWRTWAKARNNLKTVSPEVVNWSKDSDVTWLYGSIVRDSEGNAQSEEEHDLERGYGSDDENSKRISMPTKNSKSIAAAPKPILKKRTVTEIIEDNALWKLNEARKHMTEMKHASVIMDPNGNKNVHDDFDALAAQVNAQYYHYPKESNSSVSLKSQHSDKKDNSTIPNPVGENSNGGGDKGEEDLHLKSALHVQNNRSTAQSNKSILENSTNDRKANLDQNLNSPDNNRFPSSTSSSNRDNENNSMGLSSILTSNPSEKSNKPTKNRHIHFNDRVEQCMALRYPASQSEDDESDDENKQYVDVNNNANVTTINNNRTPLLAIQHKSIPINSATEHLNKNTSDDDTSSQSSSSSHSDDEEHGGLYINARFSRRSDSGVHSPITDNSSVASSTTSRAHVRPIIKLLPDTTLNYGSDEESDNGEFNGYGNAVSHNVNTSRGYDYIYDYNSVYTGDTSSFLPVDSCDIVDVPEGMDLQTAIADDNASNYEFNNAVESKEKHVPQLHKASANNTTRQHGSHMLLYDDDNYSSSSDSEQQFIEDSQYNSSDDEEEEDDDDQEVDDNHDEGLSLRRTLSLGKSGSTNSLYDLAQPSLSSATPQQKNPTNFTGGKTDVDKDAQLAVRPYPLKRNSSSGNFIFNSDSEEESSSEEEQRPLPANSQLVNRSVLKGSVTPANISSQKKKALPKQPKASDSSQSFRIVNNTPSPAEVGASDVAIEGYFSPRNESIKSVVSGGNMMDHQDHSEMDTLAKGFENCHINNASKLKDKKVDSVQTTRKEASLTDSSNESLHKVVQNARGMASKYLHSWKKSDVKPQENGNDSS",1.2
3,"Reg1-FLAG (wild type), Q00816 W165G (protein) MSTNLANYFAGKKDIENEHVNRNASHESNSKSDVKISGNDNDNDEDMGPSVSMAVQAKNDDDFHKSTFNLKRTRSMGLLDEYIDPTKKLLGRSDDLYDNDNEYYDNSSNNSSSNSSDDDYDDGYQEHSTSVSPPPADNDSYLIPQDDNDVVVEPERHVDYLSHEGKESEISNSWKYIILKKKKRDVDLVNAARLENASWRTWAKARNNLKTVSPEVVNWSKDSDVTWLYGPIVRDSEGNAQSEEEHDLERGYGSDDENSKRISMPTKNSKSIAAAPKPILKKRTVTEIIEDNALWKLNEARKHMTEMKHASVIMDPNGNKNVHDDFDALAAQVNAQYYHYPKESNSSVSLKSQHSDKKDNSTIPNPVGENSNGGGDKGEEDLHLKSALHVQNNRSTAQSNKSILENSTNDRKANLDQNLNSPDNNRFPSSTSSSNRDNENNSMGLSSILTSNPSEKSNKPTKNRHIHFNDRVEQCMALRYPASQSEDDESDDENKQYVDVNNNANVTTINNNRTPLLAIQHKSIPINSATEHLNKNTSDDDTSSQSSSSSHSDDEEHGGLYINARFSRRSDSGVHSPITDNSSVASSTTSRAHVRPIIKLLPDTTLNYGSDEESDNGEFNGYGNAVSHNVNTSRGYDYIYDYNSVYTGDTSSFLPVDSCDIVDVPEGMDLQTAIADDNASNYEFNNAVESKEKHVPQLHKASANNTTRQHGSHMLLYDDDNYSSSSDSEQQFIEDSQYNSSDDEEEEDDDDQEVDDNHDEGLSLRRTLSLGKSGSTNSLYDLAQPSLSSATPQQKNPTNFTGGKTDVDKDAQLAVRPYPLKRNSSSGNFIFNSDSEEESSSEEEQRPLPANSQLVNRSVLKGSVTPANISSQKKKALPKQPKASDSSQSFRIVNNTPSPAEVGASDVAIEGYFSPRNESIKSVVSGGNMMDHQDHSEMDTLAKGFENCHINNASKLKDKKVDSVQTTRKEASLTDSSNESLHKVVQNARGMASKYLHSWKKSDVKPQENGNDSS",1.1

# The remaining lines, values ahead:
row,ratio to parent,Binder
1,1.2,"Reg1-FLAG (wild type), Q00816 A54T (protein) MSTNLANYFAGKKDIENEHVNRNASHESNSKSDVKISGNDNDNDEDMGPSVSMTVQAKNDDDFHKSTFNLKRTRSMGLLDEYIDPTKKLLGRSDDLYDNDNEYYDNSSNNSSSNSSDDDYDDGYQEHSTSVSPPPADNDSYLIPQDDNDVVVEPERHVDYLSHEWKESEISNSWKYIILKKKKRDVDLVNAARLENASWRTWAKARNNLKTVSPEVVNWSKDSDVTWLYGPIVRDSEGNAQSEEEHDLERGYGSDDENSKRISMPTKNSKSIAAAPKPILKKRTVTEIIEDNALWKLNEARKHMTEMKHASVIMDPNGNKNVHDDFDALAAQVNAQYYHYPKESNSSVSLKSQHSDKKDNSTIPNPVGENSNGGGDKGEEDLHLKSALHVQNNRSTAQSNKSILENSTNDRKANLDQNLNSPDNNRFPSSTSSSNRDNENNSMGLSSILTSNPSEKSNKPTKNRHIHFNDRVEQCMALRYPASQSEDDESDDENKQYVDVNNNANVTTINNNRTPLLAIQHKSIPINSATEHLNKNTSDDDTSSQSSSSSHSDDEEHGGLYINARFSRRSDSGVHSPITDNSSVASSTTSRAHVRPIIKLLPDTTLNYGSDEESDNGEFNGYGNAVSHNVNTSRGYDYIYDYNSVYTGDTSSFLPVDSCDIVDVPEGMDLQTAIADDNASNYEFNNAVESKEKHVPQLHKASANNTTRQHGSHMLLYDDDNYSSSSDSEQQFIEDSQYNSSDDEEEEDDDDQEVDDNHDEGLSLRRTLSLGKSGSTNSLYDLAQPSLSSATPQQKNPTNFTGGKTDVDKDAQLAVRPYPLKRNSSSGNFIFNSDSEEESSSEEEQRPLPANSQLVNRSVLKGSVTPANISSQKKKALPKQPKASDSSQSFRIVNNTPSPAEVGASDVAIEGYFSPRNESIKSVVSGGNMMDHQDHSEMDTLAKGFENCHINNASKLKDKKVDSVQTTRKEASLTDSSNESLHKVVQNARGMASKYLHSWKKSDVKPQENGNDSS"
2,1.4,"Reg1-FLAG (wild type), Q00816 N624S (protein) MSTNLANYFAGKKDIENEHVNRNASHESNSKSDVKISGNDNDNDEDMGPSVSMAVQAKNDDDFHKSTFNLKRTRSMGLLDEYIDPTKKLLGRSDDLYDNDNEYYDNSSNNSSSNSSDDDYDDGYQEHSTSVSPPPADNDSYLIPQDDNDVVVEPERHVDYLSHEWKESEISNSWKYIILKKKKRDVDLVNAARLENASWRTWAKARNNLKTVSPEVVNWSKDSDVTWLYGPIVRDSEGNAQSEEEHDLERGYGSDDENSKRISMPTKNSKSIAAAPKPILKKRTVTEIIEDNALWKLNEARKHMTEMKHASVIMDPNGNKNVHDDFDALAAQVNAQYYHYPKESNSSVSLKSQHSDKKDNSTIPNPVGENSNGGGDKGEEDLHLKSALHVQNNRSTAQSNKSILENSTNDRKANLDQNLNSPDNNRFPSSTSSSNRDNENNSMGLSSILTSNPSEKSNKPTKNRHIHFNDRVEQCMALRYPASQSEDDESDDENKQYVDVNNNANVTTINNNRTPLLAIQHKSIPINSATEHLNKNTSDDDTSSQSSSSSHSDDEEHGGLYINARFSRRSDSGVHSPITDNSSVASSTTSRAHVRPIIKLLPDTTLNYGSDEESDNGEFNGYGSAVSHNVNTSRGYDYIYDYNSVYTGDTSSFLPVDSCDIVDVPEGMDLQTAIADDNASNYEFNNAVESKEKHVPQLHKASANNTTRQHGSHMLLYDDDNYSSSSDSEQQFIEDSQYNSSDDEEEEDDDDQEVDDNHDEGLSLRRTLSLGKSGSTNSLYDLAQPSLSSATPQQKNPTNFTGGKTDVDKDAQLAVRPYPLKRNSSSGNFIFNSDSEEESSSEEEQRPLPANSQLVNRSVLKGSVTPANISSQKKKALPKQPKASDSSQSFRIVNNTPSPAEVGASDVAIEGYFSPRNESIKSVVSGGNMMDHQDHSEMDTLAKGFENCHINNASKLKDKKVDSVQTTRKEASLTDSSNESLHKVVQNARGMASKYLHSWKKSDVKPQENGNDSS"
